Target: HER2 (extracellular domain only), soluble, recombinantly expressed, biotinylated (human) (UniProt P04626)
Test: BLI; Octet Red; biotinylated HER2 (10 μg/ml) loaded on streptavidin biosensors, DARPins in solution (eight concentrations, highest 50 nM); PBS pH 7.4, 0.01% BSA, 0.01% Tween 20; 1:1 Langmuir model, global kinetic fit

B1: DARPin F1 (designed binder)
chain: DLGKKLLEAARAGEDDEVRVLMANGADVNAKDEYGLAPLYHATAHGHLEIVEVLLKNGADVNAVDAIGFTPLHLAAFIGHLEIAEVLLRHGADVNAQDKFGKTAFDISIDNVNEDLAEILQKL
notes: source: E. coli M15 (pQE30), purified (His trap; SEC on Superdex 75 for large scale); not shown: His6, N-terminal, kept
Kd: 0.39 nM | koff: 0.00037 s⁻¹ | kon: 950000 M⁻¹ s⁻¹

— PMC4550541 (Protein Engineering, Design and Selection, 2015)
